This assay concerns the target SARS-CoV-2 Receptor Binding Domain (RBD) (SARS-CoV-2, UniProt P0DTC2). The assay is described as follows: ELISA. Particulars: both partners purified.

Results on one molecule are retold here after paper PMC7755911 (Scientific Reports, 2020).

B1: NIH-CoVnb-112 (VHH)
VHH: DVQLQESGGGLVQPGGSLRLSCAASGLTLDYYAIGWFRQAPGKEREGVSCISSSDGSTYYADSVKGRFTTSRDNAKNTVYLQMNSLKPEDTAVYYCAAVPSTYYSGTYYYTCHPGGMDYWGKGTQVTVSS
notes: also called lead nanobody candidate; anti-SARS-CoV-2 RBD nanobody; source: E. coli BL21 (DE3), periplasm by osmotic shock, purified (HisTrap, Superdex 75)
In turn, B1 registered an EC50 of 1.11 nM.
